{
  "source": "paper PMC3839849",
  "about": "(Journal of molecular biology, 2013)",
  "target": "CaV1.2 IQ domain TripleA mutant (CaV1.2 F1618A, F1619A, Y1622A) (human)",
  "assay": "ITC",
  "data": [
    {"binder": "CaBP1 C-terminal lobe (domain or fragment) IGVKELRDAFREFDTNGDGEISTSELREAMRKLLGHQVGHRDIEEIIRDVDLNGDGRVDFEEFVRMMSR", "values": [
      {"measurement": "Kd", "result": 221, "unit": "nM"},
      {"measurement": "dH", "result": "-1.45 ± 0.14", "unit": "kcal/mol"},
      {"measurement": "stoichiometry N", "result": "0.93 ± 0.01"}
    ]}
  ]
}
